# Reference: paper PMC5497784 (Cell metabolism, 2017)
# B1: IRE1α* (cytosolic kinase and RNase domains of human IRE1α, residues 469-977) (domain or fragment, UniProt O75460 469-977, looked up)
# chain: HQQQQLQHQQFQKELEKIQLLQQQQQQLPFHPPGDTAQDGELLDTSGPYSESSGTSSPSTSPRASNHSLCSGSSASKAGSSPSLEQDDGDEETSVVIVGKISFCPKDVLGHGAEGTIVYRGMFDNRDVAVKRILPECFSFADREVQLLRESDEHPNVIRYFCTEKDRQFQYIAIELCAATLQEYVEQKDFAHLGLEPITLLQQTTSGLAHLHSLNIVHRDLKPHNILISMPNAHGKIKAMISDFGLCKKLAVGRHSFSRRSGVPGTEGWIAPEMLSEDCKENPTYTVDIFSAGCVFYYVISEGSHPFGKSLQRQANILLGACSLDCLHPEKHEDVIARELIEKMIAMDPQKRPSAKHVLKHPFFWSLEKQLQFFQDVSDRIEKESLDGPIVKQLERGGRAVVKMDWRENITVPLQTDLRKFRTYKGGSVRDLLRAMRNKKHHYRELPAEVRETLGSLPDDFVCYFTSRFPHLLAHTYRAMELCSHERLFQPYYFHEPPEPQPPVTPDAL
# Molecular target: the molecule itself
# Assay: cross-linking
protein,measurement,value
B1,binding result,binds
